Molecular target: T1, PNPase wild type (Escherichia coli, UniProt P05055 1-711)
T1 sequence: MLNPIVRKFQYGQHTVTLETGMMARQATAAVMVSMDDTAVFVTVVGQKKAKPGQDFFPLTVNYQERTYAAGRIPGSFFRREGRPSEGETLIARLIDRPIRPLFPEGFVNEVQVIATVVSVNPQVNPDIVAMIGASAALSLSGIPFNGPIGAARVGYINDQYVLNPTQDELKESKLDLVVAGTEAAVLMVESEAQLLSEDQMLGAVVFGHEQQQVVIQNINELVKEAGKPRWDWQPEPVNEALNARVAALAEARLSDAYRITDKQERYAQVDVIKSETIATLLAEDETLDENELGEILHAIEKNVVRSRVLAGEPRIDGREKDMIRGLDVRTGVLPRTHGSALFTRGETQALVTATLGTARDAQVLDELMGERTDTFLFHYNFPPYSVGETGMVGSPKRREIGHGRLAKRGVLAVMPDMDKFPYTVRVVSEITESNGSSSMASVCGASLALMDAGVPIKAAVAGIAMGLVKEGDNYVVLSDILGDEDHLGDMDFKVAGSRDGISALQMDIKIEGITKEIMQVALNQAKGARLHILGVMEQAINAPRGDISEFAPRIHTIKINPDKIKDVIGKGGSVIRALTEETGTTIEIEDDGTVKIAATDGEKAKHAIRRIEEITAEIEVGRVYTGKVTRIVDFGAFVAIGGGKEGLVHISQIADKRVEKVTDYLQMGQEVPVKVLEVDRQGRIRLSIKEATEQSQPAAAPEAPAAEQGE
Experiment: EMSA; no divalent cation; efficiency similar to RNA01; 50 mM Tris-HCl pH 7.4, 50 mM NaCl, 0.5 mM DTT, 0.025% NP40, 10% glycerol, +/- 2 mM MgCl2 or MnCl2; 50 fmol probe in 10 µl; 20 min at 21 °C; native 5% PAGE at 4
Conditions: protein: recombinant; tags: His-tag; chain copies: 3; label: 5'-32P; single-stranded 20-mer

B1: DNA02 (ssDNA)
DNA: ACTGGACAAATACTCCGACG
B1: binds.

Reference: article PMC5379764, “Polynucleotide phosphorylase is implicated in homologous recombination and DNA repair in Escherichia coli”
